Test results taken from paper PMC3925836 (Advanced healthcare materials, 2013).

Columns and labels:
GPRP-A80-I60 = target: T1, GPRP-A80-I60; assay: plate-based fluorescence binding assay
T1 chain: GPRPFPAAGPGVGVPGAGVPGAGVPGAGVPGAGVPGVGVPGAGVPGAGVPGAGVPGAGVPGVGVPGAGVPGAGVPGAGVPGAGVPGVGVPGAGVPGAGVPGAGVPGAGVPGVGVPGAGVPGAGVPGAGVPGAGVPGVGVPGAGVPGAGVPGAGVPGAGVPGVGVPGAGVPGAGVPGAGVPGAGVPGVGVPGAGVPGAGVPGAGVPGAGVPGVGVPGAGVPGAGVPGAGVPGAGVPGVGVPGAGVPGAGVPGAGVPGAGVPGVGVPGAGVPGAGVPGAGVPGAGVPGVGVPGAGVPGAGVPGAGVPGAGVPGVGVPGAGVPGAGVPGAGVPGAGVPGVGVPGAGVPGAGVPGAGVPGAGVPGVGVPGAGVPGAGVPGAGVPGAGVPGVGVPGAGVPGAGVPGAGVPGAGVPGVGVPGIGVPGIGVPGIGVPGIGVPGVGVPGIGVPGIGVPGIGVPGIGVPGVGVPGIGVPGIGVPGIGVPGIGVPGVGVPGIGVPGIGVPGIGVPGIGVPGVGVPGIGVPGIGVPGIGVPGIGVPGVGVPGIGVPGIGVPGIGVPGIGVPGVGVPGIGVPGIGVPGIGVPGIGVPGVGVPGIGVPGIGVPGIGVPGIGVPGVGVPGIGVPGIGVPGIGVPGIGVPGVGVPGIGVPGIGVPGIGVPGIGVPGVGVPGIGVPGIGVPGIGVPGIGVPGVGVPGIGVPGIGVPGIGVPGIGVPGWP

GPRP-P40-I60 = target: T2, GPRP-P40-I60; assay: plate-based fluorescence binding assay
T2 chain: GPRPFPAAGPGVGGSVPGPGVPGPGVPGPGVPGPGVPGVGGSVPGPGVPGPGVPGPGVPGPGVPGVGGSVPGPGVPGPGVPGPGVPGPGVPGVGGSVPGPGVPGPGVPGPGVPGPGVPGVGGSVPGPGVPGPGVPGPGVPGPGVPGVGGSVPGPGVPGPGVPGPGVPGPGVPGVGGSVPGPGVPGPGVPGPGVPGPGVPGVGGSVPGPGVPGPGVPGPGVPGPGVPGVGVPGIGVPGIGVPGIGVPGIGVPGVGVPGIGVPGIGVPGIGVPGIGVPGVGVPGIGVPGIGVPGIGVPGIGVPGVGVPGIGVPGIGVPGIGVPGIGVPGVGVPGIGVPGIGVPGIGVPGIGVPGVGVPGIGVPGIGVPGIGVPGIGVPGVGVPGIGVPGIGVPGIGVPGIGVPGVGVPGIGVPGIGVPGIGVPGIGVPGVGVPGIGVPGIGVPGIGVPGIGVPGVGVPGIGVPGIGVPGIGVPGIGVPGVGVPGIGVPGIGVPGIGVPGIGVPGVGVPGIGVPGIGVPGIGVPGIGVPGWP

B1: GPSP-P40-I60-C labelled with Alexa Fluor 488 or Alexa Fluor 546 (designed binder)
chain: GPSPFPAAGPGVGGSVPGPGVPGPGVPGPGVPGPGVPGVGGSVPGPGVPGPGVPGPGVPGPGVPGVGGSVPGPGVPGPGVPGPGVPGPGVPGVGGSVPGPGVPGPGVPGPGVPGPGVPGVGGSVPGPGVPGPGVPGPGVPGPGVPGVGGSVPGPGVPGPGVPGPGVPGPGVPGVGGSVPGPGVPGPGVPGPGVPGPGVPGVGGSVPGPGVPGPGVPGPGVPGPGVPGVGVPGIGVPGIGVPGIGVPGIGVPGVGVPGIGVPGIGVPGIGVPGIGVPGVGVPGIGVPGIGVPGIGVPGIGVPGVGVPGIGVPGIGVPGIGVPGIGVPGVGVPGIGVPGIGVPGIGVPGIGVPGVGVPGIGVPGIGVPGIGVPGIGVPGVGVPGIGVPGIGVPGIGVPGIGVPGVGVPGIGVPGIGVPGIGVPGIGVPGVGVPGIGVPGIGVPGIGVPGIGVPGVGVPGIGVPGIGVPGIGVPGIGVPGVGVPGIGVPGIGVPGIGVPGIGVPGVGVPGIGVPGIGVPGIGVPGIGVPGWPGGC
modifications: Alexa Fluor 488 or Alexa Fluor 546 on the C-terminal cysteine (sulfhydryl-maleimide)
B1: binds (GPRP-A80-I60); binds (GPRP-P40-I60).
